# Results taken from patent US11407819B2, “Compositions and use of a fibrinogen binding motif present in EFB and COA for therapeutics and vaccines against Staphylococcus aureus” (priority 2013, dated 2022).
# “Also recorded” adds a separate entry of the source.
# T1: rEfb-N binding to Fg (Homo sapiens, UniProt P02671+P02675+P02679)
# T1 construct: full-length human Fibrinogen (diluted in PBS, Enzyme research); purchased Enzyme research; host or cells: Efb probe made in E. coli
# T1 sequence (P02671 20-629 limits assumed): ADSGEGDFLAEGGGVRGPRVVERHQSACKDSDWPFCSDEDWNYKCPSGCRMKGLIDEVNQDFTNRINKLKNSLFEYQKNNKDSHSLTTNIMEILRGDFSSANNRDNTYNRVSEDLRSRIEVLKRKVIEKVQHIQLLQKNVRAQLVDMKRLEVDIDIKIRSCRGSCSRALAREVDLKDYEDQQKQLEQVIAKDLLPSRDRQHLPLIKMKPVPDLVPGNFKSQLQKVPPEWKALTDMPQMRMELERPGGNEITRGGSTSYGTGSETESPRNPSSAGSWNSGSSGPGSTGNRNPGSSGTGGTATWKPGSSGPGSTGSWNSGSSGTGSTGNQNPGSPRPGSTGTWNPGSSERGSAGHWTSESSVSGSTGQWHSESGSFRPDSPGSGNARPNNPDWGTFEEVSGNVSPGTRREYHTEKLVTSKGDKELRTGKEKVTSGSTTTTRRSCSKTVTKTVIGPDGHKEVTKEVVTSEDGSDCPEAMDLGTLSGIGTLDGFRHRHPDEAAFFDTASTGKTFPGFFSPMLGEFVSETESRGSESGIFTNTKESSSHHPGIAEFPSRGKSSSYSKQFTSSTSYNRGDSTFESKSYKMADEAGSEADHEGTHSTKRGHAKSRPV
# T1 sequence (P02675 31-491): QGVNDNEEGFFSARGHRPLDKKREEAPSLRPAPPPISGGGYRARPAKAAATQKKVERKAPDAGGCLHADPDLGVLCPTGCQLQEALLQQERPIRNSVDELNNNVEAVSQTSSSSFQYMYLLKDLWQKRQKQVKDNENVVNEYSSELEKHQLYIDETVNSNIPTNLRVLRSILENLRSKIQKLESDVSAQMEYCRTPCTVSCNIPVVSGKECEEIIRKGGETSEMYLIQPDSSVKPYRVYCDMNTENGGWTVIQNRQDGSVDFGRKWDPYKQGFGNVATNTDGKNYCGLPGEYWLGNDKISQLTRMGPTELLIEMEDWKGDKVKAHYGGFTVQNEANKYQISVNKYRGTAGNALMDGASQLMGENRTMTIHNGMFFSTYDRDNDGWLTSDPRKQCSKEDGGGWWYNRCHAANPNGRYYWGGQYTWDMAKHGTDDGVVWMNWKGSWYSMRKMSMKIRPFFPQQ
# T1 sequence (P02679 27-453): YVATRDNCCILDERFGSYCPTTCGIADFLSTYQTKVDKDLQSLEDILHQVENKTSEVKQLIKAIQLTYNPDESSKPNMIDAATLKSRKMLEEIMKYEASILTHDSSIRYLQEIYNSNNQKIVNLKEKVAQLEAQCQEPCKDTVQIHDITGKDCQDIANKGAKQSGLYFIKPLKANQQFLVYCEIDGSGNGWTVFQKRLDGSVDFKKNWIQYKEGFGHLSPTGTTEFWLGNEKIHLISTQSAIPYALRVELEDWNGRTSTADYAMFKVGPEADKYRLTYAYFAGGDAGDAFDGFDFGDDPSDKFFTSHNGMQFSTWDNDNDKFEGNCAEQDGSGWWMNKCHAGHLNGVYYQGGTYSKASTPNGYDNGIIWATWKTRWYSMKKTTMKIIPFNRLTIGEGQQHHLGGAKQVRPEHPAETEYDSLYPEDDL
# B1: FBE5-F9: VH SEQ ID NO: 80, VL SEQ ID NO: 110 (antibody, V domains shown)
# VH: QMQLVQSGGGVVQPGRSLRLSCAASGFTFSSYGMHWVRQAPGKGLEWVAVISYDGSNKYYADSVKGRFTISRDNSKNTLYLQMNSLRAEDTAVYYCAKEGDGDYGGVLDYWGQGTLVTVSS
# VL: QSVLTQPPSVSAAPGQKVTISCSGSSSNIEKNYVSWYQQLPGTAPKLLIYDNNKRPSGIPDRFSGSKSGTSATLGITGLQTGDEADYYCGTWDSSLSAVVFGGGTKLTVL
# B2: FBE5-A12: VH SEQ ID NO: 73, VL SEQ ID NO: 103 (antibody, V domains shown)
# VH: QVQLVESGGGVVQPGRSLRLSCAASGFTFSSYGMHWVRQAPGKGLEWVAVISYDGSNKYYADSVKGRFTISRDNSKNTLYLQMNSLRGEDTAVYYCAREGGWEPNGLDYWGQGTLVTVSS
# VL: QAVLTQPPSASGTPGQRVTISCSGSDFNVGTNYVNWYQQLPGSAPKLLIYRNNQRPSGVPDRFSGSKSGTSATLGITGLQTGDEADYYCGTWDSSLSAEVFGGGTKLTVL
# Tests used:
# THP-1 cells = assay: THP-1 cell adherence to immobilized Fg; assay type: cell-based
# Description: Cell adherence assay using cell lines—A monocytic cell line THP-1 cell stably expressing αMβ2 was maintained in RPMI1640 supplemented with 10% fetal bovine serum, […] L-glutamine, 100 units/ml penicillin and 100 μg/ml streptomycin. Prior to use, cells were harvested by centrifuge, washed and suspended in RPMI 1640/1% human serum albumin. For cell adherence assays, 48-well plates were coated with 200 μl of Fibrinogen (10 μg/ml) overnight at 4° C. followed by 1 hour at 37° C. before blocking with 1% Polyvinylpyrrolidone (PVP 3600 kDa) for 45 minutes at 37° C. Subsequently, the cells were seeded 2×10^5/well in the presence or absence of Coa or Efb recombinant proteins or peptides and incubated at 37° C. for 25 minutes. Non-adherent cells were removed by washing gently three times with PBS/1% BSA. Adherent cells were quantitated with CyQuant kit according to the manufacturer's manual.
# rEfb-N binding to Fg = target: T1, rEfb-N binding to Fg; assay: Competition ELISA, peptide inhibition of rEfb-N (Efb 30-104) binding to Fg; settings: increasing concentration of peptides; 2 nM GST fusion protein
# Source text: Coa-F contains an Efb like fibrinogen binding motif. FIG. 11A is an image of a ClustalW alignment of amino acid sequence from Efb-O (Efb 68-98) and Coa from Newman strain (col-Newman). Sequence similarity was identified at Coa 474-505. Bold letters denote conserved residues and underlined letters represent similar residues. FIGS. 11B and 11C show a comparison of amino acid sequence of Efb-O with Coa 474-505 (FIG. 11B) and Coa 506-532 (FIG. 11C). Large letters in Efb-O indicate the residues important for Fg binding. The red letters show the identical residues and the yellow letters indicate the similar residues. […] Increasing concentration of Coa peptides was incubated with 2 nM GST fusion proteins in Fg-coated microtiter wells. Closed square, sCoa-O; closed circle, sCoa-RI; closed triangle, sEfb-O.
# A peptide was synthesized that corresponds to the Coa-O sequence (sCoa-O) and determined its Fg binding activity in a competition ELISA. Microtiter wells were coated with Fg and binding of the recombinant N-terminal segment of Efb (rEfb-N), that harbors the two Fg binding sites, was quantitated in the presence of increasing concentration of different synthetic peptides.
# In the case of peptide inhibition assay, various concentration of Efb or Coa peptides were mixed with a fixed concentration of Coa-GST or Efb-GST fusion proteins (5-10 nM) in TBS and the bound GST fusion proteins were detected through incubation with HRP-conjugated rabbit anti-GST polyclonal antibodies (5000× dilution). All proteins were diluted in TBS containing 1% BSA and 0.05% TWEEN® 20 and the ELISA assays were carried out at room temperature.
# [1] = system: Coa-F, Coa-R0, Efb-N, Efb-O, Efb-A binding to Fg; assay: Inhibition by FBE5 scFv-Fc of Coa and Efb fragment binding to immobilized human Fg; design: species or system Staphylococcus aureus; settings: scFv-Fc 0.5, 5, 50 μg/ml; for inhibition of binding to Fg of all proteins tested: Coa-F, Coa-R0, Efb-N, Efb-O 10 nM, Efb-A 750 nM
# Description: To assess the inhibitory activity of anti-Coa scFv-Fc antibodies, 0.5 μg/well of human Fg was immobilized at 4° C. overnight in 50 mM Carbonate Buffer, pH 9.6. Indicated amounts (50, 5, 0.5 μg/ml) of scFv-Fcs prepared in 2% BSA+1×TBS+0.05% TWEEN® 20 were pre-incubated for 1 hour with a constant concentration of Coa or Efb fragments also prepared in 2% BSA+1×TBS+0.05% TWEEN® 20 at room temperature, 250 rpm shaking. Specifically, Coa-F, Coa-R0, Efb-N and Efb-O were at a fixed concentration of 10 nM; whereas Efb-A was at 750 nM. Fg-binding activity of each protein alone was also checked (no mAb control—0 μg/ml). The Fg-coated plate was blocked with 2% BSA-TBST and washed with PBST. […] Residual bound Coa and Efb fragments were detected with HRP-conjugated (HorseRadish Peroxidase-conjugated) α-GST-tag antibody, except for Efb-N, where an HRP-conjugated α-HIS-tag was used (see FIG. 18). HRP-tagged antibodies were diluted in 2% BSA+1×TBS+0.05% TWEEN® 20 and used at 1:10000 dilution. […] HRP signal was developed using […]™ OPD tablets using manufacturer's guidelines. Binding of Coa and Efb fragments to Fg (no mAb control) was set to 100% and residual binding to Fg of Coa and Efb fragments in the presence of different concentrations of antibodies was calculated and represented.
# To assess the inhibitory activity of anti-Coa scFv-Fc antibodies, 0.5 μg/well of human Fg was immobilized at 4° C. overnight in 50 mM Carbonate Buffer, pH 9.6. Indicated amounts (0, 0.5, 5, and 50 μg/ml) of scFv-Fcs were pre-incubated for 1 hour with a constant concentration of Coa or Efb fragments. Specifically, Coa-F, Coa-R0, Efb-N and Efb-O were at a fixed concentration of 10 nM; whereas Efb-A was at 750 nM. Fg-binding activity of each protein alone was also checked (no mAb control—0 μg/ml). The Fg-coated plate was blocked with 2% BSA-PBST and washed with PBST. The pre-incubated mixture of Coa/Efb and anti-Coa scFv-Fc was transferred on the Fg-coated plate. Residual bound Coa and Efb fragments were detected with HRP-conjugated (HorseRadish Peroxidase-conjugated) α-GST-tag antibody, except for Efb-N, where an HRP-conjugated α-HIS-tag was used. Binding of Coa and Efb fragments to Fg (no mAb control) was set to 100% and residual binding to Fg of Coa and Efb fragments in the presence of different concentrations of antibodies was calculated and represented.
Molecule,"inhibition of THP-1 adherence to immobilized Fg (THP-1 cells; M1/70 20 μg/ml, rEfb 0.2 μM, rCoa 0.5 μM, peptides 0.5 μM each)",reversal of inhibition of THP-1 adherence elicited by rEfb or rCoa (THP-1 cells; peptide 50 μM preincubated with rEfb (0.2 μM) or rCoa (0.2 μM)),inhibition of rEfb-N binding to Fg (rEfb-N binding to Fg),"inhibition of CoaF, CoaRO and EfbA binding to Fg [1]",inhibition of EfbN and EfbO binding to Fg [1],inhibition of binding to Fg of all proteins tested [1]
"sCoa-O: synthetic peptide corresponding to Coa-O, residues Coa 474-505 (KYVKYRDAGTGIREYNDGTFGYEARPRFNKPS)",did not inhibit THP-1 adherence,reverses the inhibitory activities,potent inhibitor; also recorded: effectively inhibited rEfb-N binding to Fg,–,–,–
B1,–,–,–,clear inhibition,less efficient,dose dependent inhibition of all proteins tested
B2,–,–,–,clear inhibition,less efficient,dose dependent inhibition of all proteins tested
